Assay results from publication PMC11413682 (2024).

B1: CUL2^ZYG11B (residues 490–728) (domain or fragment)
chain: ELFIVRQLLQIVKQKTNQNSVDTTLKFTLSALWNLTDESPTTCRHFIENQGLELFMRVLESFPTESSIQQKVLGLLNNIAEVQELHSELMWKDFIDHISSLLHSVEVEVSYFAAGIIAHLISRGEQAWTLSRSQRNSLLDDLHSAILKWPTPECEMVAYRSFNPFFPLLGCFTTPGVQLWAVWAMQHVCSKNPSRYCSMLIEEGGLQHLYNIKDHEHTDPHVQQIAVAILDSLEKHIVR

Key:
[1] = molecular target: B1; test: ITC
SNX11-degron peptide [2] = test: ITC
SNX11-degron peptide [3] = test: ITC; pre-formed ZYG11B/ORF10 N5 peptide complex
[4] = molecular target: B1; test: ITC; remark: listed apart in the source

Binder	Ka [1] [M⁻¹]	other results
GYI [SARS-CoV-2 ORF10 N3 peptide]	69100	
GYINV [SARS-CoV-2 ORF10 N5 peptide]	340000	
B1		Kd (SNX11-degron peptide [2]): 0.4 µM; Kd (SNX11-degron peptide [3]): 5.23 µM
GY [SARS-CoV-2 ORF10 N2 peptide]		Kd [4]: > 200 µM
GYIN [SARS-CoV-2 ORF10 N4 peptide]	193000	
